Measurements published in PMC5746516.

B1: NBCe1-B 3-point mutant (F922A, R925A, and K927A), GFP-tagged (natural protein)
chain: MEDEAVLDRGASFLKHVCDEEEVEGHHTIYIGVHVPKSYRRRRRHKRKTGHKEKKEKERISENYSDKSDIENADESSSSILKPLISPAAERIRFILGEEDDSPAPPQLFTELDELLAVDGQEMEWKETARWIKFEEKVEQGGERWSKPHVATLSLHSLFELRTCMEKGSIMLDREASSLPQLVEMIVDHQIETGLLKPELKDKVTYTLLRKHRHQTKKSNLRSLADIGKTVSSASRMFTNPDNGSPAMTHRNLTSSSLNDISDKPEKDQLKNKFMKKLPRDAEASNVLVGEVDFLDTPFIAFVRLQQAVMLGALTEVPVPTRFLFILLGPKGKAKSYHEIGRAIATLMSDEVFHDIAYKAKDRHDLIAGIDEFLDEVIVLPPGEWDPAIRIEPPKSLPSSDKRKNMYSGGENVQMNGDTPHDGGHGGGGHGDCEELQRTGRFCGGLIKDIKRKAPFFASDFYDALNIQALSAILFIYLATVTNAITFGGLLGDATDNMQGVLESFLGTAVSGAIFCLFAGQPLTILSSTGPVLVFERLLFNFSKDNNFDYLEFRLWIGLWSAFLCLILVATDASFLVQYFTRFTEEGFSSLISFIFIYDAFKKMIKLADYYPINSNFKVGYNTLFSCTCVPPDPANISISNDTTLAPEYLPTMSSTDMYHNTTFDWAFLSKKECSKYGGNLVGNNCNFVPDITLMSFILFLGTYTSSMALKKFKTSPYFPTTARKLISDFAIILSILIFCVIDALVGVDTPKLIVPSEFKPTSPNRGWFVPPFGENPWWVCLAAAIPALLVTILIFMDQQITAVIVNRKEHKLKKGAGYHLDLFWVAILMVICSLMALPWYVAATVISIAHIDSLKMETETSAPGEQPKFLGVREQRVTGTLVFILTGLSVFMAPILKFIPMPVLYGVFLYMGVASLNGVQAMDALALLLMPLKHQPDFIYLRHVPLRRVHLFTFLQVLCLALLWILKSTVAAIIFPVMILALVAVRKGMDYLFSQHDLSFLDDVIPEKDKKKKEDEKKKKKKKGSLDSDNDDSDCPYSEKVPSIKIPMDIMEQQPFLSDSKPSDRERSPTFLERHTSC
B2: NBCe1-B PP1-binding consensus residue deletion mutant (deletion of amino acids 922-927), GFP-tagged (natural protein)
chain: MEDEAVLDRGASFLKHVCDEEEVEGHHTIYIGVHVPKSYRRRRRHKRKTGHKEKKEKERISENYSDKSDIENADESSSSILKPLISPAAERIRFILGEEDDSPAPPQLFTELDELLAVDGQEMEWKETARWIKFEEKVEQGGERWSKPHVATLSLHSLFELRTCMEKGSIMLDREASSLPQLVEMIVDHQIETGLLKPELKDKVTYTLLRKHRHQTKKSNLRSLADIGKTVSSASRMFTNPDNGSPAMTHRNLTSSSLNDISDKPEKDQLKNKFMKKLPRDAEASNVLVGEVDFLDTPFIAFVRLQQAVMLGALTEVPVPTRFLFILLGPKGKAKSYHEIGRAIATLMSDEVFHDIAYKAKDRHDLIAGIDEFLDEVIVLPPGEWDPAIRIEPPKSLPSSDKRKNMYSGGENVQMNGDTPHDGGHGGGGHGDCEELQRTGRFCGGLIKDIKRKAPFFASDFYDALNIQALSAILFIYLATVTNAITFGGLLGDATDNMQGVLESFLGTAVSGAIFCLFAGQPLTILSSTGPVLVFERLLFNFSKDNNFDYLEFRLWIGLWSAFLCLILVATDASFLVQYFTRFTEEGFSSLISFIFIYDAFKKMIKLADYYPINSNFKVGYNTLFSCTCVPPDPANISISNDTTLAPEYLPTMSSTDMYHNTTFDWAFLSKKECSKYGGNLVGNNCNFVPDITLMSFILFLGTYTSSMALKKFKTSPYFPTTARKLISDFAIILSILIFCVIDALVGVDTPKLIVPSEFKPTSPNRGWFVPPFGENPWWVCLAAAIPALLVTILIFMDQQITAVIVNRKEHKLKKGAGYHLDLFWVAILMVICSLMALPWYVAATVISIAHIDSLKMETETSAPGEQPKFLGVREQRVTGTLVFILTGLSVFMAPILKFIPMPVLYGVFLYMGVASLNGVQLLLMPLKHQPDFIYLRHVPLRRVHLFTFLQVLCLALLWILKSTVAAIIFPVMILALVAVRKGMDYLFSQHDLSFLDDVIPEKDKKKKEDEKKKKKKKGSLDSDNDDSDCPYSEKVPSIKIPMDIMEQQPFLSDSKPSDRERSPTFLERHTSC

Target: Protein phosphatase 1 (PP1) (UniProt P62136)
Test: co-IP

Chain of UniProt P62136 (P62136 whole entry): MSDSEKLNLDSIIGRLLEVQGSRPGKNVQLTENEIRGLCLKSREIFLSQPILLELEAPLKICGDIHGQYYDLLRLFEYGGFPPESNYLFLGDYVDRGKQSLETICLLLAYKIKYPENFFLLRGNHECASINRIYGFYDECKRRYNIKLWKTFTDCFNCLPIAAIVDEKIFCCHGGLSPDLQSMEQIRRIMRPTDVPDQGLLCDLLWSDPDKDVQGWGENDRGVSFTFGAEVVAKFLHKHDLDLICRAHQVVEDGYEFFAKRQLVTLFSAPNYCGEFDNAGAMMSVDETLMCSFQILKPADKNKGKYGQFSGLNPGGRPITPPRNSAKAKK

| Binder | interaction with PP1 by co-IP densitometry, percent of wild type [%] |
| --- | --- |
| B1 | 28.9 |
| B2 | 18.2 |
